Experimental data as given in article PMC10786891, “Massively parallel profiling of RNA-targeting CRISPR-Cas13d”.

T1: EsCas13d, nuclease-dead (Eubacterium siraeum, UniProt B0MS50, R295A;H300A;R849A;H854A)
T1 sequence: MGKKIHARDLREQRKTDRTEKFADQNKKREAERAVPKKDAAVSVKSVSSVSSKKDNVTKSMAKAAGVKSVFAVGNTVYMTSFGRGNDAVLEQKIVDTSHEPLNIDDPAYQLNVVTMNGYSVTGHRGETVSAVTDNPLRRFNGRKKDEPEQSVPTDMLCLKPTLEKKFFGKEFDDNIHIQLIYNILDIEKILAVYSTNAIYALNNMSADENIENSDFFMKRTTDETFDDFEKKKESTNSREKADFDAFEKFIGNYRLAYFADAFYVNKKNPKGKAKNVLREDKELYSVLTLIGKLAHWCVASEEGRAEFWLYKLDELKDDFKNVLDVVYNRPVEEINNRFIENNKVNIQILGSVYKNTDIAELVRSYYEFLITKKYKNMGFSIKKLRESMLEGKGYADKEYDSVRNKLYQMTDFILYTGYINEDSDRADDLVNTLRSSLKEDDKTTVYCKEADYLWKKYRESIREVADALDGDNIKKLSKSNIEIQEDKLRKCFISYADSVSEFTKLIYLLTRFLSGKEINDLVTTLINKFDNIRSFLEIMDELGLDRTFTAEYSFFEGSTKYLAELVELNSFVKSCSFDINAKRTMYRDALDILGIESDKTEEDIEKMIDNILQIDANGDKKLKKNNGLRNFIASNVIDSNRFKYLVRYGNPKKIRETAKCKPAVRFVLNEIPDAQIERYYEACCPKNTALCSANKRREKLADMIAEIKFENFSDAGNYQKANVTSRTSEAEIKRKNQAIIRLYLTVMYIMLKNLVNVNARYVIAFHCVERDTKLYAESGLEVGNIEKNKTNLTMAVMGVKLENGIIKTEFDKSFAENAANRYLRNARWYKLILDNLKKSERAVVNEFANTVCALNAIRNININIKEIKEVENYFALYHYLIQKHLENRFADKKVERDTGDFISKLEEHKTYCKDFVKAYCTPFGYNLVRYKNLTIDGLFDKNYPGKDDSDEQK


Molecular target: T1, EsCas13d, nuclease-dead
Experiment: crRNA (strand 1, pre-loaded); Mg2+; 40 mM Tris-HCl pH 7.5, 150 mM NaCl, 6 mM MgCl2, 1 mM DTT, 0.1% Tween-20, 0.2 mg/ml BSA; 25 C; 10 min per concentration, then washed
Conditions: tags: His6-TwinStrep-SUMO cleaved; N-terminal SNAP kept (SNAP-Surface 488); label: 3' end held by stalled T7 RNA polymerase

Binder	Kd
target 1 insG 3' of 22,insA 3' of 4 (mixed) RNA 1: CACCCGUGCAAAAAUGCAGGGGUCUAAAACUGAGCGGAUAACCUCUCUAUGG RNA 2: GGGAAUGGAUCCACAUCUACGAAUUCGUACGCAUAGAGAGGUUAUCCGCAUCACCGAGAUCGGAAGAGCACACGU	17.9 ± 2.6 nM
target 1 U3C,C7A (mixed) RNA 1: CACCCGUGCAAAAAUGCAGGGGUCUAAAACUGAGCGGAUAACCUCUCUAUGG RNA 2: GGGAAUGGAUCCACAUCUACGAAUUCGUACCAUAGAGAGGUUAUACGCCCACCGAGAUCGGAAGAGCACACGU	8 ± 0.4 nM
target 1 insC 3' of 15,insG 3' of 4 (mixed) RNA 1: CACCCGUGCAAAAAUGCAGGGGUCUAAAACUGAGCGGAUAACCUCUCUAUGG RNA 2: GGGAAUGGAUCCACAUCUACGAAUUCGUACCAUAGAGCAGGUUAUCCGCGUCACCGAGAUCGGAAGAGCACACGU	10.7 ± 0.6 nM
target 1 C6A,U19A (mixed) RNA 1: CACCCGUGCAAAAAUGCAGGGGUCUAAAACUGAGCGGAUAACCUCUCUAUGG RNA 2: GGGAAUGGAUCCACAUCUACGAAUUCGUACCAAAGAGAGGUUAUCAGCUCACCGAGAUCGGAAGAGCACACGU	29.8 ± 1.7 nM
target 1 del7,del22 (mixed) RNA 1: CACCCGUGCAAAAAUGCAGGGGUCUAAAACUGAGCGGAUAACCUCUCUAUGG RNA 2: GGGAAUGGAUCCACAUCUACGAAUUCGUACAUAGAGAGGUUAUCGCUCACCGAGAUCGGAAGAGCACACGU	22.6 ± 1.3 nM
target 1 C2A,G12U (mixed) RNA 1: CACCCGUGCAAAAAUGCAGGGGUCUAAAACUGAGCGGAUAACCUCUCUAUGG RNA 2: GGGAAUGGAUCCACAUCUACGAAUUCGUACCAUAGAGAGUUUAUCCGCUAACCGAGAUCGGAAGAGCACACGU	9.2 ± 0.4 nM
target 1 insA 3' of 8,insG 3' of 4 (mixed) RNA 1: CACCCGUGCAAAAAUGCAGGGGUCUAAAACUGAGCGGAUAACCUCUCUAUGG RNA 2: GGGAAUGGAUCCACAUCUACGAAUUCGUACCAUAGAGAGGUUAUACCGCGUCACCGAGAUCGGAAGAGCACACGU	7.7 ± 0.5 nM
target 1 insU 3' of 16,insC 3' of 16 (mixed) RNA 1: CACCCGUGCAAAAAUGCAGGGGUCUAAAACUGAGCGGAUAACCUCUCUAUGG RNA 2: GGGAAUGGAUCCACAUCUACGAAUUCGUACCAUAGAUCGAGGUUAUCCGCUCACCGAGAUCGGAAGAGCACACGU	47 ± 4 nM
target 1 insU 3' of 21,insG 3' of 4 (mixed) RNA 1: CACCCGUGCAAAAAUGCAGGGGUCUAAAACUGAGCGGAUAACCUCUCUAUGG RNA 2: GGGAAUGGAUCCACAUCUACGAAUUCGUACCUAUAGAGAGGUUAUCCGCGUCACCGAGAUCGGAAGAGCACACGU	24.9 ± 2.8 nM
target 1 C6A,A16G (mixed) RNA 1: CACCCGUGCAAAAAUGCAGGGGUCUAAAACUGAGCGGAUAACCUCUCUAUGG RNA 2: GGGAAUGGAUCCACAUCUACGAAUUCGUACCAUAGGGAGGUUAUCAGCUCACCGAGAUCGGAAGAGCACACGU	28.8 ± 1.4 nM
target 1 insU 3' of 2,insG 3' of 2 (mixed) RNA 1: CACCCGUGCAAAAAUGCAGGGGUCUAAAACUGAGCGGAUAACCUCUCUAUGG RNA 2: GGGAAUGGAUCCACAUCUACGAAUUCGUACCAUAGAGAGGUUAUCCGCUCUGACCGAGAUCGGAAGAGCACACGU	8.6 ± 0.6 nM
target 1 insA 3' of 5,insU 3' of 5 (mixed) RNA 1: CACCCGUGCAAAAAUGCAGGGGUCUAAAACUGAGCGGAUAACCUCUCUAUGG RNA 2: GGGAAUGGAUCCACAUCUACGAAUUCGUACCAUAGAGAGGUUAUCCGAUCUCACCGAGAUCGGAAGAGCACACGU	6.6 ± 0.6 nM
target 1 insU 3' of 18,insC 3' of 18 (mixed) RNA 1: CACCCGUGCAAAAAUGCAGGGGUCUAAAACUGAGCGGAUAACCUCUCUAUGG RNA 2: GGGAAUGGAUCCACAUCUACGAAUUCGUACCAUAUCGAGAGGUUAUCCGCUCACCGAGAUCGGAAGAGCACACGU	84 ± 9 nM
target 1 C2A,G12A (mixed) RNA 1: CACCCGUGCAAAAAUGCAGGGGUCUAAAACUGAGCGGAUAACCUCUCUAUGG RNA 2: GGGAAUGGAUCCACAUCUACGAAUUCGUACCAUAGAGAGAUUAUCCGCUAACCGAGAUCGGAAGAGCACACGU	4.57 ± 0.22 nM
target 1 insG 3' of 16,insC 3' of 9 (mixed) RNA 1: CACCCGUGCAAAAAUGCAGGGGUCUAAAACUGAGCGGAUAACCUCUCUAUGG RNA 2: GGGAAUGGAUCCACAUCUACGAAUUCGUACCAUAGAGGAGGUUACUCCGCUCACCGAGAUCGGAAGAGCACACGU	23.4 ± 1.1 nM
target 1 insC 3' of 19,insC 3' of 18 (mixed) RNA 1: CACCCGUGCAAAAAUGCAGGGGUCUAAAACUGAGCGGAUAACCUCUCUAUGG RNA 2: GGGAAUGGAUCCACAUCUACGAAUUCGUACCAUCACGAGAGGUUAUCCGCUCACCGAGAUCGGAAGAGCACACGU	45.8 ± 3.4 nM
target 1 insA 3' of 12,insA 3' of 7 (mixed) RNA 1: CACCCGUGCAAAAAUGCAGGGGUCUAAAACUGAGCGGAUAACCUCUCUAUGG RNA 2: GGGAAUGGAUCCACAUCUACGAAUUCGUACCAUAGAGAGGAUUAUCACGCUCACCGAGAUCGGAAGAGCACACGU	25.9 ± 2.4 nM
target 1 A9U,G13A (mixed) RNA 1: CACCCGUGCAAAAAUGCAGGGGUCUAAAACUGAGCGGAUAACCUCUCUAUGG RNA 2: GGGAAUGGAUCCACAUCUACGAAUUCGUACCAUAGAGAAGUUUUCCGCUCACCGAGAUCGGAAGAGCACACGU	12.9 ± 0.9 nM
target 1 C2G,A14G (mixed) RNA 1: CACCCGUGCAAAAAUGCAGGGGUCUAAAACUGAGCGGAUAACCUCUCUAUGG RNA 2: GGGAAUGGAUCCACAUCUACGAAUUCGUACCAUAGAGGGGUUAUCCGCUGACCGAGAUCGGAAGAGCACACGU	15.6 ± 1.8 nM
target 1 C2G,C22A (mixed) RNA 1: CACCCGUGCAAAAAUGCAGGGGUCUAAAACUGAGCGGAUAACCUCUCUAUGG RNA 2: GGGAAUGGAUCCACAUCUACGAAUUCGUAACAUAGAGAGGUUAUCCGCUGACCGAGAUCGGAAGAGCACACGU	16.9 ± 1.8 nM
target 1 C6G,U8G (mixed) RNA 1: CACCCGUGCAAAAAUGCAGGGGUCUAAAACUGAGCGGAUAACCUCUCUAUGG RNA 2: GGGAAUGGAUCCACAUCUACGAAUUCGUACCAUAGAGAGGUUAGCGGCUCACCGAGAUCGGAAGAGCACACGU	12.8 ± 0.6 nM
target 1 insA 3' of 19,insU 3' of 5 (mixed) RNA 1: CACCCGUGCAAAAAUGCAGGGGUCUAAAACUGAGCGGAUAACCUCUCUAUGG RNA 2: GGGAAUGGAUCCACAUCUACGAAUUCGUACCAUAAGAGAGGUUAUCCGUCUCACCGAGAUCGGAAGAGCACACGU	41 ± 6 nM
target 1 insA 3' of 6,insC 3' of 5 (mixed) RNA 1: CACCCGUGCAAAAAUGCAGGGGUCUAAAACUGAGCGGAUAACCUCUCUAUGG RNA 2: GGGAAUGGAUCCACAUCUACGAAUUCGUACCAUAGAGAGGUUAUCCAGCCUCACCGAGAUCGGAAGAGCACACGU	23.9 ± 1.9 nM
target 1 insC 3' of 19,insG 3' of 14 (mixed) RNA 1: CACCCGUGCAAAAAUGCAGGGGUCUAAAACUGAGCGGAUAACCUCUCUAUGG RNA 2: GGGAAUGGAUCCACAUCUACGAAUUCGUACCAUCAGAGAGGGUUAUCCGCUCACCGAGAUCGGAAGAGCACACGU	72 ± 11 nM
target 1 U8A,C21U (mixed) RNA 1: CACCCGUGCAAAAAUGCAGGGGUCUAAAACUGAGCGGAUAACCUCUCUAUGG RNA 2: GGGAAUGGAUCCACAUCUACGAAUUCGUACUAUAGAGAGGUUAACCGCUCACCGAGAUCGGAAGAGCACACGU	9.1 ± 0.4 nM
target 1 insC 3' of 22,insA 3' of 17 (mixed) RNA 1: CACCCGUGCAAAAAUGCAGGGGUCUAAAACUGAGCGGAUAACCUCUCUAUGG RNA 2: GGGAAUGGAUCCACAUCUACGAAUUCGUACCCAUAGAAGAGGUUAUCCGCUCACCGAGAUCGGAAGAGCACACGU	33 ± 5 nM
target 1 insU 3' of 22,insU 3' of 9 (mixed) RNA 1: CACCCGUGCAAAAAUGCAGGGGUCUAAAACUGAGCGGAUAACCUCUCUAUGG RNA 2: GGGAAUGGAUCCACAUCUACGAAUUCGUACUCAUAGAGAGGUUAUUCCGCUCACCGAGAUCGGAAGAGCACACGU	~60 nM
target 1 A16C,G17U (mixed) RNA 1: CACCCGUGCAAAAAUGCAGGGGUCUAAAACUGAGCGGAUAACCUCUCUAUGG RNA 2: GGGAAUGGAUCCACAUCUACGAAUUCGUACCAUAUCGAGGUUAUCCGCUCACCGAGAUCGGAAGAGCACACGU	28 ± 1.4 nM
